# Reference: paper PMC2386557, “Varicellovirus UL49.5 Proteins Differentially Affect the Function of the Transporter Associated with Antigen Processing, TAP” (PLoS Pathogens, 2008)
# Where no end group is shown, it is not given here. The star is where a group is joined. 125I = [125I]*
# T1: TAP complex of MJS TAP1-GFP cells (TAP1-GFP with TAP2) ( | human (endogenous in MJS), UniProt Q03518;Q03519)
# T1 construct: also called GFP-tagged TAP
# T1 sequence 1: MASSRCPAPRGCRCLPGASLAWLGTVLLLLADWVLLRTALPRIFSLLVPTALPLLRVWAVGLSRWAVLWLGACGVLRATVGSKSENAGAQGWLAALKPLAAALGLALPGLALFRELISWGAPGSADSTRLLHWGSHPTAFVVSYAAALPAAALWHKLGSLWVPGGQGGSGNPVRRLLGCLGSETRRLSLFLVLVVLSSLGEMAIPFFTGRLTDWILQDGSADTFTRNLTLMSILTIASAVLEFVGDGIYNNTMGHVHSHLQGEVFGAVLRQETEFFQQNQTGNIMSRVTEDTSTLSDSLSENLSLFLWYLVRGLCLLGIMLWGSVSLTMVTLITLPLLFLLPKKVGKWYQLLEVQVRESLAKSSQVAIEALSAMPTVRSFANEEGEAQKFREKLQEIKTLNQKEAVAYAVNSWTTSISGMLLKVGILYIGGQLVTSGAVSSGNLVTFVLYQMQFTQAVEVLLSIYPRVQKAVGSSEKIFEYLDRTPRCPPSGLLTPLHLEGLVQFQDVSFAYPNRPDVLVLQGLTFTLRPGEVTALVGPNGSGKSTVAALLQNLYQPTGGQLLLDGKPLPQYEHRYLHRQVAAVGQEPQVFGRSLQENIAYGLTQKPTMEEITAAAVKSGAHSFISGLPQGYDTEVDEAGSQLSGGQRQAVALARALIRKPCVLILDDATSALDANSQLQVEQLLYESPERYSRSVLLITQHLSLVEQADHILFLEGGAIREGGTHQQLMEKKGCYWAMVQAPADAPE
# T1 sequence 2: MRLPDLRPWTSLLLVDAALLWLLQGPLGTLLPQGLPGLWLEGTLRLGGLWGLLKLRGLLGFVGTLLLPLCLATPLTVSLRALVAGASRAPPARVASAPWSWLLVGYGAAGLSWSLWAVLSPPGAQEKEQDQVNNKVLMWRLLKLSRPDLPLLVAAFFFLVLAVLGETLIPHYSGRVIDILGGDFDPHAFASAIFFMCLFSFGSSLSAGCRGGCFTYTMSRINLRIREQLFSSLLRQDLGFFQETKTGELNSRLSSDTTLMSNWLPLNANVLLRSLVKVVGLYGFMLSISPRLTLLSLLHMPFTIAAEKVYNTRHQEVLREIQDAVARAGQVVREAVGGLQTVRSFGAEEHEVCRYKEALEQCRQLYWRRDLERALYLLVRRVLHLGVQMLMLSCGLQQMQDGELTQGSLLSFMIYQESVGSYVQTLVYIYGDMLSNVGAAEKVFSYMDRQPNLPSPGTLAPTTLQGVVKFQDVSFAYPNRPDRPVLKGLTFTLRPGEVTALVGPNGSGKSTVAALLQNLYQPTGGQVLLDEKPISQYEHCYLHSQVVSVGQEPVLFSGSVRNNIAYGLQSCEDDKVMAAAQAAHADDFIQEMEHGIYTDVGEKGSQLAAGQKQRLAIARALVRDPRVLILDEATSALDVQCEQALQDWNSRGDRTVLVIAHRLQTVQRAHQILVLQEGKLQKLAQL
# B1: radiolabeled reporter peptide RR[125I]YQKSTEL (peptide)
# peptide: RRY(125I)QKSTEL
# notes: also called ^125I-labeled reporter peptide; radiolabeled peptide
# Assays:
# Details in all cases: one partner purified
# [1] = molecular target: T1, TAP complex of MJS TAP1-GFP cells …; test: radioligand binding
# [2] = molecular target: T1, TAP complex of MJS TAP1-GFP cells …; test: radioligand binding; as a2, but microsomes of MJS TAP1-GFP cells that express EHV-1 UL49.5
# [3] = molecular target: T1, TAP complex of MJS TAP1-GFP cells …; test: radioligand binding; microsomes of control MJS TAP1-GFP cells incubated on ice with increasing concentrations of RR[125I]YQKSTEL in AP buffer (5 mM MgCl2 in PBS, pH 7.0); corrected for the signal with 200-fold excess of ICP47; triplicate
binder,measurement,setting,value
B1,Kd,[1],351 ± 42 nM
same,Kd,[2],236 ± 71 nM
same,Kd,[3],277 ± 58 nM
